B1: TPR t1 (parent)
chain: GACCAAUCUGCCCUCAGAGCUCGAGAACAUCUUCGGAUGCAGAGGAGGCAGGCUUCGGUGGCGCGAUAGCGCCAACGUCCUCAACCUCCAAUGCAUCCCACCACAUGAUGAUGCCUGAAGAGCCUUGGUUUUUUG

Here are results for 21 variants from the RNAGym collection of RNA variant scans (doi:10.1073/pnas.2313332121).

In the data set the parent is B1. Nature of the data set: polymerase ribozyme fitness, log enrichment relative to wild type (log ratio); higher = more active; in vitro selection for triplet polymerase activity. The method, boiled down:
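In triplicate, a single round of in vitro selection was run on each mutant library, PCR-built and transcribed, covering one subunit of a heterodimeric triplet polymerase ribozyme. Frozen incubation at −7 °C followed annealing with a biotinylated primer, partner subunit and triplets, and extended constructs were then gel-excised, streptavidin-captured and taken through RT-PCR. Fitness is the logarithm of genotype enrichment over wild-type enrichment, from inverse-variance-weighted replicate averages of Illumina-sequenced inputs and outputs. […] only genotypes with ≥10 input reads and ≥1 read per output were kept.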
GACCAAUCUGCCAUCAGAGCUCGAGAACAUCUUCGGAUGCAGAGGAGGCAGGCUUCGGUGGCGCGAUAGCACCCACGUCCUCAACCUCCAAUGCAUCCCACCACAUGAUGAUGCCUGAAGAGCCUUGAUUUUUUG: the “polymerase ribozyme fitness (log ratio)” value is -5.69. In the case of GACCUAUCUGCCCUCAGAGGUCGAGAACAUCUUCGGAUGCAGAGGAGGCAGGCUUCGGUGGCGCGAUAGCGCCAACGUCCUCAACCUCCAAUGCAUCCCACCACAUGAUGAUGCCUGAAGCGUCUUGGUUUUUUG, the “polymerase ribozyme fitness (log ratio)” value was -3.97. In the case of GACCAAUCUGCCCUCAGAGCUCGAGAACAUCUUCGGAUGCAGAGGUGGCAGGCUUCGGUGGCGCGAUAGCGCCAACGUCCUCAACCUACAAUGCAUCCCACCACAUGAUGAUGCCUGAAGAGCCUUGGUUUUUUG, the “polymerase ribozyme fitness (log ratio)” value was -1.18. For the variant GACCAAGCUGCCCUCAGAGCUCGAGAACAUCUUCGGAUGCAGAGGAGGCAGGCUUCGGUGGCGCGAUAGCGCCAACGUCCUCAACCUCCAUUGCAUCCCACCACAUGAUGAUGCCUGAAGAGCCUUGGUUUUUUG, the “polymerase ribozyme fitness (log ratio)” value was -1.77. Turning to GACCAAUCUGCCCUCAGAGCCCGAGAAUAUCUUCGGAUGCAGAGGAGGCAGGCUUCGGUGGCGCGAUAGCGCCAACGUCCUCAACCUCCAAUGCAUCCCAGCACAUGAUCAUGCCUGAAGAGCCUUGGUUUUUUG, the “polymerase ribozyme fitness (log ratio)” value is -5.65.

With GACCAAUCUGCCUUCAGAGCUCGAGAACAUCUUCGGAUGCAGAGGAGGCAGGCUUAGGUGGCGCGAUAGCGCCAACGUCCUCAACCUCCAAUGCAGCCCACCACAUGAUGAUGCCUGAAGAGCCUUGGUUUUUUG, the “polymerase ribozyme fitness (log ratio)” value is -0.637. Turning to GGCCAAUCUGCCCUCAGAGCUCGAGAACAUCUUCGGAUGCAGAGGAGGCAGGCUUCGGUGGCGCGAUAGCGCCAACGUCCUGAACCUCCAAUGCAUCCCACCACAUGAUGAUGCCUGAAGAGCCUUGGUUUUUUG, the “polymerase ribozyme fitness (log ratio)” value was -1.18. For GACCAAUCUGCCCUCAGAGCUCGAGAACAUCUUCGGAUGCAGAGGAGGCAGGCUUCGGUGGCGCGAUAGCGCUAACGUCCUCAAUCUCCAAUGCAUCCCACCACAUGAUGAUGCCGGAAGAGCCUUGGUUUUUUG the value was -3.31; for GACCAAUCUGCCCUCAGUGCUCGAGAACAUCUUCGGAUGCAGAGGAGGCAGGCUUCGGUUGCGCGAUAGCGCCAACGUCCUCAACCUCCAAUGCAUCCCACCACAUGAUGAUGCCUGAAGAGCCUUGGUUUUUUG, -1.19.

GACCAAUCUGCCCUCAGAACUCGAGAACAUCUUCGGAUGCAGAGGAGGCAGGCUUCGGUGGCGCGAUAGCGCCAACGUCCUCAACCUCCAAUGCAUCCCACCACAUGAUGAUGACUGAAGAGCCUUGGUUUUUUG: the “polymerase ribozyme fitness (log ratio)” value is -1.55. In the case of GACCAAUGUGCACUCAGAGCUCGAGAAGGUCUUCGGAUGCAGAGGAGUCAGGCUUCGGUGGCGCGAUUGCGCCAACGUCCUCAACCUCCAAUGCAUCCCACCACAUGAUGAUGACUGAAGAGCCGUGGUUUUUUG, the “polymerase ribozyme fitness (log ratio)” value was -6.52. For the variant GACCAAUCUGCCCUCAGAGCUCGAGAACAUCUUCGGAUGCAGAGGAGGCAGGAUUCGGUGGCGCGAUAGCACCAACGUCCUCAACCUCCAAUGCAUCCCACCACAUGAUGAUGCCUGAAGAGCCUUGGUUUUUUG, the “polymerase ribozyme fitness (log ratio)” value was -0.89.

For the variant GGCCAAUCUGCUCUCAGAGCUCGAGAACAUCUUCGGAUGCAGAGGAGGCAGGCUUAGGUGGCGCGAUAGCGCCAACGUCCUCAACCUCCAAUGCAUUCCACCACAUGAUGAUGCCUGAAGAGCUUUGGUUUUUUG, the “polymerase ribozyme fitness (log ratio)” value turned out to be 0.631.

For the variant GAUCAAUCUGCCCUCAGAGCUCGAGAACAUCUUCGAAUGCAGAGGAGGCCGGCUUCGGUGGCGCGAUAGCGCCAACGUCCUCAACCUCCAAUGCAUCCCACCACAUGAUGAUGCCUGAAUAGCCUUGGUUUUUUG, the “polymerase ribozyme fitness (log ratio)” value was -1.14. For GACCAAUCUGCCCUCAGAGCUCGAGAACAUCUUCGGAUGCAGAGAAGGCCGGCUUCGGUGGCGCGAUAGCGCCAACGUCCUCAACCUCCAAUGCAUCCCACCACAUGAUGAUGCCUGAAGAGCCUUGGUUUUUUG the value was -1.09; for GACCAAUGUGCCCUCAGAGCUCGAGAACAUCUUCGGAUGCAGAGGAGGCAGGCUUGGGUGGCGCGAUAGCGCCAACGUCCUCAACCUCACAUGCAUCCCACCACAUCAUGAUGCCUCAAGAGCCUUGGUUUUUUG, -5.56; for GACCAAUCUGCCCUCAGAGCUCGAGACCAUCUUCGGAUGCAGAGGAGGCAGGCUUCGGUGGCGCGAUAGCGCCAACGUCCUCAAUCUCCAAUGCAUCCCACCACAUGAUGAUGCCUGAAGAGUCUUGGUUUUUUG, -3.3.

For GACCAAUGUGCCCUCAGAGCUCGAGAACAUCUUCGGAUGCAGAGCAGGCAUGCUUCGGUGGCGCAAUAGCGCCAACGUCCUCAACCUCCAAUGCAUCCCACCACAUGAUGAUUCCUGAAGAGUCUUGGUUUUUUG, the “polymerase ribozyme fitness (log ratio)” value was -7.22. As to GACCAAUCUGCCCUCAGAGCUCGAGAACAUCUUCGGAUGCCUAGGAGGCAGGCUUCGGUGGCGCGAUAGCGCCAACGUCCUCAACCUCCAAUGCAUCCCACCAUAUGAUGAUGACUGAAGAGCCUUGGUUUUUUG, the “polymerase ribozyme fitness (log ratio)” value was -3.04. For the variant GACCAAUCUGCCCUCAGAGCUCGAGAACAUCUUCGUAUGCAGAGGAGGCAGGCUUCGGUGGCUCGAUAGCGCCAACGUCUUCACCCUCCAAUGCAUCCCACCACAUGAUGAUGCCUGAAGAGCCUUGGUUUUUUG, the “polymerase ribozyme fitness (log ratio)” value was -4.1. For the variant GACCAAUCUGCCCUCAGAGCACGAGAACAUCUUCGGAUGCAGAGGAGGCAGGCUUCGGUGGCGCGAUAGCGCCAACGUCCUCAACCUCCAAUGCAUCCCACCACAAGAUGAUGCCUGAAGAGCCUUGGUUUAUUG, the “polymerase ribozyme fitness (log ratio)” value was -0.182.
